{"source": "patent US20200010567A1", "about": "(NEURIMMUNE, published 2020)", "binders": {"B1": {"name": "NI-308.18F7 (antibody, V domains shown)", "VH": "QVQLQESGPGLVKPSETLSVTCTVSGGSINDYYWNWIRQPAGKGLEWIGRIYASGTINYNPSLQSRVTMSIDTSKNQFSLDLISVSAADTAVYYCARWGQVVGDYYYGMDVWGQGTTVTVSS", "VL": "EIVLTQSPLSLSVTPGEPASISCKSSQSLQHTNGYNYLDWYLLKPGQSPQLLIFLTSNRASGVPDRFSGSGSGTNFTLKISRVEAEDVGVYYCMEGIQLWTFGQGTKLEIK", "notes": "Recombinant complete human IgG1, kappa"}, "B2": {"name": "NI-308.15O7 (antibody, V domains shown)", "VH": "QVQLVESGGGVVQPGRSLRLSCAASGFTFSNHAMHWVRQAPGKGLEWVAVISYDGENTYYADSIEGRFTISRDNFKNTLFLQMYSLTADDTAMYFCARGGRRGHFTSYYLDYWGQGTLVTVSS", "VL": "CDIQMTQSPSSLSASVGDRVTITCRASQNIDKYLNWYQQIPGKAPKLLIYAASSLHSGVPSRFSGSGSGTDFSLTISSLQPEDFAIYYCQQSYSSFRTFGQGTKLEIK"}, "B3": {"name": "NI-308.5G2 (antibody, V domains shown)", "VH": "EVQLVQSGADLRNPGASVTVSCTASGYHFADNAINWLRQAPGQRLEWMGWINIYSGNTKYSQNFQGRVTFTRNTSASTAFMHLRSLRSEDTAVYFCARDPDSSGYYLPYFDYWGQGTLVTVSS", "VL": "DIQLTQSPDSLTLSLGERATINCKSSQSVFYNSNNKNYLAWYQQKPGQPPKLLMYWASTRESGVTDRFSGSGSGTDFTLTITNLQAEDVAVYYCQQFYSSPLTFGGGTKVEIK", "notes": "as for B1"}, "B4": {"name": "NI-308.6B11 (antibody, V domains shown)", "VH": "EVQLVQSGAEVKRPGASVKVSCKVSGYTLTELSMHWVRQAPGKGLEWMGGFDPEDGETVYAQKFQGRVTMTEDTSTDTAYMELSSLRSEDTALYHCATYGSSWHWNEGNEGSYYFDYWGQGTLVTVSS", "VL": "CDIQMTQSPSSLSASVGDRVTITCQASQDISIYLNWYQQKPGKAPKLLIYDASNLETGVPSRFSGSGSGTDFTFTISGLQPEDVARYYCQQYDDLPITFGQGTRLEIK", "notes": "as for B1"}}, "key": {"[1]": {"biological_target": "T1, BSA-coupled (GA)15 DPR protein peptide (bovine, conjugated via a bifunctional linker (SMCC) to bovine serum albumin)", "T1 construct": "also called BSA-(GA)15", "T1 sequence (P02769 25-607 limits assumed, chain 2 of 2, one chain of several)": "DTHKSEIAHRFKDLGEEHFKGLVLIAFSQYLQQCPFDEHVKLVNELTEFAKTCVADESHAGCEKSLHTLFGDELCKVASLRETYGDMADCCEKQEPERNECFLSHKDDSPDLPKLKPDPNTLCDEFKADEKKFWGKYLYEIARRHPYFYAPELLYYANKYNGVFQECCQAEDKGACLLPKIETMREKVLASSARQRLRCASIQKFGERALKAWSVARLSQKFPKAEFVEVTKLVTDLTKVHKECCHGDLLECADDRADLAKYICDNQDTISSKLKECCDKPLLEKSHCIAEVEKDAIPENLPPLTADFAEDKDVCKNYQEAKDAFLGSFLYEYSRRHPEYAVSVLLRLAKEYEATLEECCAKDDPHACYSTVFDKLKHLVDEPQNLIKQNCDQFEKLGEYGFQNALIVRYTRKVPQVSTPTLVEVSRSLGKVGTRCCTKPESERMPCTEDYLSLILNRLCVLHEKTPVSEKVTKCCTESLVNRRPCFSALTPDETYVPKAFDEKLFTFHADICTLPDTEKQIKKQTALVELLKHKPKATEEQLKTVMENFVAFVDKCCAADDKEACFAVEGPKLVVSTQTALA", "assay": "indirect ELISA, BSA-coupled peptide coated, antibody titrated [also D00012 FIG. 3B]", "method": "(§1) In brief, dipeptide repeat proteins were synthesized and purified by Schafer-N(Copenhagen, Denmark): (GA)₁₅: H-CHHHHHH(GA)₁₅-OH; (GP)₁₅: H-C(GP)₁₅-OH; (GR)₁₅: H-C(GR)₁₅-OH; (PA)₁₅: H-C(PA)₁₅-OH; (PR)₁₅: H—C(PR)₁₅-OH. DPR protein peptides were then conjugated via a bifunctional linker (SMCC) to bovine serum albumin (BSA). 96-well microplates (Corning Incorporated, Corning, USA) were coated with BSA-coupled or -uncoupled dipeptide repeat protein peptides at a concentration of either 5 μg/ml or 20 μg/ml in coating buffer (15 mM Na₂CO₃, 35 mM NaHCO₃, pH 9.42). Non-specific binding sites were blocked for 1 h at room temperature with PBS/0.1% Tween®-20 containing 2% BSA (Sigma-Aldrich, Buchs, Switzerland). Primary antibodies were diluted to the indicated concentrations and incubated 1 h at room temperature, followed by incubation with a donkey anti-human IgG Fcγ-specific antibody conjugated with HRP (Jackson ImmunoResearch Laboratories, Inc., West Grove, USA). Binding was determined by measurement of HRP activity in a standard colorimetric assay. EC₅₀ values were estimated by non-linear regression using GraphPad Prism software (San Diego, USA)."}, "[2]": {"biological_target": "T2, (GA)15: H-CHHHHHH(GA)15-OH", "T2 construct": "synthetic, not coupled to BSA; also called poly-GA DPR protein peptide", "T2 peptide": "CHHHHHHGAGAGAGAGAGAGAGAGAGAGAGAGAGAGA", "assay": "indirect ELISA, uncoupled peptide coated, antibody titrated [also D00012 FIG. 3C]", "method": "as §1"}, "[3]": {"biological_target": "T3, GP2: H-(GP)2HHHHHH-NH2", "T3 peptide": "H-GPGPHHHHHH-NH2", "assay": "indirect ELISA, His-tagged peptide coated at 50 ug/ml, antibody titrated [also D00026 FIG. 7J]", "source_text": "(§2) In brief, dipeptide repeat proteins were synthesized and purified by Schafer-N (Copenhagen, Denmark): GA₂₀: H-(GA)₂₀HHHHHH-NH₂; GA₁₀: H-(GA)₁₀HHHHHH-NH₂; GA₆: H-(GA)₆HHHHHH-NH₂; GA₅: H-(GA)₅HHHHHH-NH₂; GA₄: H-(GA)₄HHHHHH-NH₂; GA₃: H-(GA)₃HHHHHH-NH₂; GA₂: H-(GA)₂HHHHHH-NH₂; GP₂₀: H-(GP)₂₀HHHHHH-NH₂; GP₁₀: H-(GP)₁₀HHHHHH-NH₂; GP₆: H-(GP)₆HHHHHH-NH₂; GP₅: H-(GP)₅HHHHHH-NH₂; GP₄: H-(GP)₄HHHHHH-NH₂; GP₃: H-(GP)₃HHHHHH-NH₂; GP₂: H-(GP)₂HHHHHH-NH₂. GR₂₀: H-(GR)₂₀HHHHHH-NH₂; GR₁₀: H-(GR)₁₀HHHHHH-NH₂; GR₆: H-(GR)₆HHHHHH-NH₂; GR₅: H-(GR)₅HHHHHH-NH₂; GR₄: H-(GR)₄HHHHHH-NH₂; GR₃: H-(GR)₃HHHHHH-NH₂; GR₂: H-(GR)₂HHHHHH-NH₂; PA₂₀: H-(PA)₂₀HHHHHH-NH₂; PA₁₀: H-(PA)₁₀HHHHHH-NH₂; PA₆: H-(PA)₆HHHHHH-NH₂; PA₅: H-(PA)₅HHHHHH-NH₂; PA₄: H-(PA)₄HHHHHH-NH₂; PA₃: H-(PA)₃HHHHHH-NH₂; PA₂: H-(PA)₂HHHHHH-NH₂; PR₂₀: H-(PR)₂₀HHHHHH-NH₂; PR₁₀: H-(PR)₁₀HHHHHH-NH₂; PR₆: H-(PR)₆HHHHHH-NH₂; PR₅: H-(PR)₅HHHHHH-NH₂; PR₄: H-(PR)₄HHHHHH-NH₂; PR₃: H-(PR)₃HHHHHH-NH₂; PR₂: H-(PR)₂HHHHHH-NH₂. 96-well microplates (Corning Incorporated, Corning, USA) were coated with dipeptide repeat protein peptides at a concentration of 50 μg/ml in coating buffer (15 mM Na₂CO₃, 35 mM NaHCO₃, pH 9.42). Non-specific binding sites were blocked for 1 h at room temperature with PBS/0.1% Tween®-20 containing 2% BSA (Sigma-Aldrich, Buchs, Switzerland). Primary antibodies were diluted to the indicated concentrations and incubated 1 h at room temperature, followed by incubation with a donkey anti-human IgG Fcγ-specific antibody conjugated with HRP (Jackson ImmunoResearch Laboratories, Inc., West Grove, USA). Binding was determined by measurement of HRP activity in a standard colorimetric assay. EC₅₀ values were estimated by non-linear regression using GraphPad Prism software (San Diego, USA)."}, "[4]": {"biological_target": "T4, (GP)15: H-C(GP)15-OH", "T4 construct": "synthetic, not coupled to BSA; also called poly-GP DPR protein peptide", "T4 peptide": "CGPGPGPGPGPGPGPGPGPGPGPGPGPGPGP", "assay": "indirect ELISA, uncoupled peptide coated, antibody titrated [also D00014 FIG. 3G]", "method": "as §1"}, "[5]": {"biological_target": "T5, (GR)15: H-C(GR)15-OH", "T5 construct": "synthetic, not coupled to BSA; also called poly-GR DPR protein peptide", "T5 peptide": "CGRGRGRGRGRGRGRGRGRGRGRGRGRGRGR", "assay": "indirect ELISA, uncoupled peptide coated, antibody titrated [also D00014 FIG. 3I]", "method": "as §1"}, "[6]": {"biological_target": "T6, GA2: H-(GA)2HHHHHH-NH2", "T6 peptide": "H-GAGAHHHHHH-NH2", "assay": "indirect ELISA, His-tagged peptide coated at 50 ug/ml, antibody titrated [also D00027 FIG. 7M]", "source_text": "as §2"}, "[7]": {"biological_target": "T7, GA4: H-(GA)4HHHHHH-NH2", "T7 peptide": "H-GAGAGAGAHHHHHH-NH2", "assay": "indirect ELISA, His-tagged peptide coated at 50 ug/ml, antibody titrated [also D00027 FIG. 7M]", "source_text": "as §2"}, "[8]": {"biological_target": "T8, GA3: H-(GA)3HHHHHH-NH2", "T8 peptide": "H-GAGAGAHHHHHH-NH2", "assay": "indirect ELISA, His-tagged peptide coated at 50 ug/ml, antibody titrated [also D00027 FIG. 7M]", "source_text": "as §2"}, "[9]": {"biological_target": "T9, GA5: H-(GA)5HHHHHH-NH2", "T9 peptide": "H-GAGAGAGAGAHHHHHH-NH2", "assay": "indirect ELISA, His-tagged peptide coated at 50 ug/ml, antibody titrated [also D00027 FIG. 7M]", "source_text": "as §2"}}, "data": [{"binder": "B1", "values": [{"measurement": "EC50", "setting": "[1]", "value": 0.11, "unit": "nM"}]}, {"binder": "B2", "values": [{"measurement": "EC50", "setting": "[2]", "value": 0.18, "unit": "nM"}]}, {"binder": "B3", "values": [{"measurement": "binding result", "setting": "[3]", "value": "no binding (tested: about 4x10^5 pM (last point))"}, {"measurement": "EC50", "setting": "[4]", "value": 0.4, "unit": "nM"}]}, {"binder": "B4", "values": [{"measurement": "EC50", "setting": "[5]", "value": 1.3, "unit": "nM"}, {"measurement": "binding result", "setting": "[6]", "value": "no binding (tested: about 4x10^5 pM (last point))"}, {"measurement": "binding result", "setting": "[7]", "value": "no binding (tested: about 4x10^5 pM (last point))"}, {"measurement": "binding result", "setting": "[8]", "value": "no binding (tested: about 4x10^5 pM (last point))"}, {"measurement": "binding result", "setting": "[9]", "value": "no binding (tested: about 4x10^5 pM (last point))"}]}]}
